Laboratory results published in PMC9482650, “Quantitative fragmentomics allow affinity mapping of interactomes” (Nature Communications, 2022).

Key:
Test in all cases: holdup assay
Set-up in all cases: key: below the threshold = too weak to quantify, mostly under pKd 3.1 to 4
[1] = target: MAGI2_6, Q86UL8
[2] = target: T1, DLG3_1, Q92796
T1 sequence (Q92796 125-227, limits assumed, looked up): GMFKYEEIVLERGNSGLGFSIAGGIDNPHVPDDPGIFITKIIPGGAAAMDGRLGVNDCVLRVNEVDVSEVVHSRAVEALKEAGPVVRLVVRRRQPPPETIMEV

[3] = target: Inadl_4, Q8NI35
[4] = target: MAST1, Q9Y2H9
[5] = target: T2, SNTB1, Q13884
T2 sequence (Q13884 107-205, limits assumed, looked up): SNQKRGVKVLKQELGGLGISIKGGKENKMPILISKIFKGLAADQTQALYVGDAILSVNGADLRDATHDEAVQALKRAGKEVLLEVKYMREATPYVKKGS

[6] = target: PDLIM1, O00151
[7] = target: T3, SIPA1L2, Q9P2F8
T3 sequence (Q9P2F8 945-1036, limits assumed, looked up): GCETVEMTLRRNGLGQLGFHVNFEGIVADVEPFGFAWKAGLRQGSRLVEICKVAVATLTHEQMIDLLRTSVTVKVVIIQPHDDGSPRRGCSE

[8] = target: GRIP2_4, Q9C0E4
[9] = target: T4, CARD11, Q9BXL7
T4 sequence (Q9BXL7 662-765, limits assumed, looked up): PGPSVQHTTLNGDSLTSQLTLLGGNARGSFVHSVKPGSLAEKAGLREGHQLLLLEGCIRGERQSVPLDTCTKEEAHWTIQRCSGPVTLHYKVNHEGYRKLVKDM

[10] = target: DLG1_1, Q12959
[11] = target: T5, GRIP1_5, Q9Y3R0
T5 sequence (Q9Y3R0 568-668, limits assumed, looked up): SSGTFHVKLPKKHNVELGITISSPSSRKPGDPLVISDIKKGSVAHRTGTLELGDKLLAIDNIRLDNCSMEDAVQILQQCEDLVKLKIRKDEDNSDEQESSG

[12] = target: T6, APBA3_1, O96018
T6 sequence (O96018 389-490, limits assumed, looked up): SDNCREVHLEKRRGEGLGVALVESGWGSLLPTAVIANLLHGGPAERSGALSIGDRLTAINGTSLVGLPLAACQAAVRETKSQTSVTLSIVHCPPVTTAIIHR

[13] = target: T7, DVL3, Q92997
T7 sequence (Q92997 244-331, limits assumed, looked up): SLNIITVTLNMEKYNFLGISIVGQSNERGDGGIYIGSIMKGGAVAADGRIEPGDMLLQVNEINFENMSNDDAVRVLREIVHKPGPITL

[14] = target: T8, SYNJ2BP, P57105
T8 sequence (P57105 8-110, limits assumed, looked up): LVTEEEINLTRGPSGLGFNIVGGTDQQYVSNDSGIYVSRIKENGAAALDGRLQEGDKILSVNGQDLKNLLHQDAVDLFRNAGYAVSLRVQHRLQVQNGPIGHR

[15] = target: SCRIB_2, Q14160
[16] = target: GRID2IP_2, A4D2P6
[17] = target: T9, TJP3_3, O95049
T9 sequence (O95049 375-456, limits assumed, looked up): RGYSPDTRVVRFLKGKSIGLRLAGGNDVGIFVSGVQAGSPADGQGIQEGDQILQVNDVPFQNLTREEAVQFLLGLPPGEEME

[18] = target: T10, PDZD7_3, Q9H5P4
T10 sequence (Q9H5P4 857-944, limits assumed, looked up): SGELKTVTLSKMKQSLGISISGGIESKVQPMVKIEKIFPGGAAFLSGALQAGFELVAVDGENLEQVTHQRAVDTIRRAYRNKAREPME

[19] = target: Inadl_6, Q8NI35
[20] = target: DLG5_1, Q8TDM6
[21] = target: T11, APBA2_2, Q99767
T11 sequence (Q99767 654-744, limits assumed, looked up): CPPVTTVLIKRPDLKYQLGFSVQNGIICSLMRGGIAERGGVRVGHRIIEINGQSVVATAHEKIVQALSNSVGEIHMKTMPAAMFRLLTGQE

[22] = target: T12, SHANK1, Q9Y566
T12 sequence (Q9Y566 658-767, limits assumed, looked up): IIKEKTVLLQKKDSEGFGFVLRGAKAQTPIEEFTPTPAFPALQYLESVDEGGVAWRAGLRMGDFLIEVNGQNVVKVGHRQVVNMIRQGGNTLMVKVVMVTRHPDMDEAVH

[23] = target: MAGI2_5, Q86UL8
[24] = target: HTRA1, Q92743
[25] = target: T13, SNTA1, Q13424
T13 sequence (Q13424 82-180, limits assumed, looked up): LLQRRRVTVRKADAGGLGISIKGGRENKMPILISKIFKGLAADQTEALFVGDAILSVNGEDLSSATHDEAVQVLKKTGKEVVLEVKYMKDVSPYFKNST

[26] = plain residues with an end cap or a label only (N-terminal biotin on a linker: ado-ado)
[27] = plain residues with an end cap or a label only (N-terminal biotin on a linker: (peg)3)

SCRIB_2, Q14160, sequence (Q14160 857-960): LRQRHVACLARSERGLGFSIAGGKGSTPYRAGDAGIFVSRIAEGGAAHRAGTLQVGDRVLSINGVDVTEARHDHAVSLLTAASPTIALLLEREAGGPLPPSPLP
Inadl_4, Q8NI35, sequence (Q8NI35 547-651): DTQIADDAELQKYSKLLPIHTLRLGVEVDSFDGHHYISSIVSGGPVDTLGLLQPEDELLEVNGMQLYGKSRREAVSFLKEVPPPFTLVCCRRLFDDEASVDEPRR
PDLIM1, O00151, sequence (O00151 1-87): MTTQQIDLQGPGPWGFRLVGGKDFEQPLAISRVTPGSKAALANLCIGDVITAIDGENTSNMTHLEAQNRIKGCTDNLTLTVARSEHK
MAGI2_5, Q86UL8, sequence (Q86UL8 915-1017): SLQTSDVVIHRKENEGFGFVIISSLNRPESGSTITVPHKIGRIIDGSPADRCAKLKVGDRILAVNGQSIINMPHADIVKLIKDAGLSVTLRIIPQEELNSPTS
MAST1, Q9Y2H9, sequence (Q9Y2H9 962-1065): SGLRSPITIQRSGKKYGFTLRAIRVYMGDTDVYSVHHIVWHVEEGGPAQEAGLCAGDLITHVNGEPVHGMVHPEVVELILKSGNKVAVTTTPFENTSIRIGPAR
GRIP2_4, Q9C0E4, sequence (Q9C0E4 446-548): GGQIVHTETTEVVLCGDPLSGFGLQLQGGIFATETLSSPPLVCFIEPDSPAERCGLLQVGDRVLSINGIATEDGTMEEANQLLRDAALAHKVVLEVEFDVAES
GRID2IP_2, A4D2P6, sequence (A4D2P6 272-370): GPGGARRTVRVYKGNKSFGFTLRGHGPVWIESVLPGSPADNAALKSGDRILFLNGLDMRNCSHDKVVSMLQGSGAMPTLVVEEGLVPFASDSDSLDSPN
DLG5_1, Q8TDM6, sequence (Q8TDM6 617-713): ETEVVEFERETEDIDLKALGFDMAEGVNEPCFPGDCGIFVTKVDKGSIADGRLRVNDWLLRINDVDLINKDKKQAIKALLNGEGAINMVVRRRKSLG
Inadl_6, Q8NI35, sequence (Q8NI35 1058-1167): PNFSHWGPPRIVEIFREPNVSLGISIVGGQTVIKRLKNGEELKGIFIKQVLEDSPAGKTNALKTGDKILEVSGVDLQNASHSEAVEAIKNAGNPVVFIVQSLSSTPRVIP
MAGI2_6, Q86UL8, sequence (Q86UL8 1141-1229): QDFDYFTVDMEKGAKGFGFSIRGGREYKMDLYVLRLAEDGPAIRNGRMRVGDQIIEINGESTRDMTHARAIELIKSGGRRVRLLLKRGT
HTRA1, Q92743, sequence (Q92743 360-477): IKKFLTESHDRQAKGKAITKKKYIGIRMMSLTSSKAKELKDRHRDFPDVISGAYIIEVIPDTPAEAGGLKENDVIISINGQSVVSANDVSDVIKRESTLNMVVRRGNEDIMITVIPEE

## LPAHHNATRL [SLC34A1, Q06495;Q06495-1]
[1]; [26]
  pKd: below the threshold
[2]; [26]
  pKd: below the threshold
[3]; [26]
  pKd: below the threshold
[4]; [26]
  pKd: 4.84
[5]; [26]
  pKd: below the threshold
[6]; [26]
  pKd: below the threshold
[7]; [26]
  pKd: below the threshold
[8]; [26]
  pKd: below the threshold
[9]; [26]
  pKd: below the threshold
[10]; [26]
  pKd: below the threshold
[11]; [26]
  pKd: below the threshold
[12]; [26]
  pKd: below the threshold
[13]; [26]
  pKd: below the threshold
[14]; [26]
  pKd: below the threshold
[15]; [26]
  pKd: below the threshold
[16]; [26]
  pKd: 4.13
[17]; [26]
  pKd: below the threshold
[18]; [26]
  pKd: 4.43
[19]; [26]
  pKd: below the threshold
[20]; [26]
  pKd: below the threshold
[21]; [26]
  pKd: below the threshold
[22]; [26]
  pKd: 5.39

## PKRSFIESNV [TANC1, Q9C0D5]
[23]; [26]
  pKd: 4.41
[1]; [26]
  pKd: 4.09
[2]; [26]
  pKd: 4.15
[3]; [26]
  pKd: below the threshold
[4]; [26]
  pKd: 4.7
[5]; [26]
  pKd: 5
[6]; [26]
  pKd: below the threshold
[7]; [26]
  pKd: below the threshold
[8]; [26]
  pKd: below the threshold
[9]; [26]
  pKd: below the threshold
[10]; [26]
  pKd: 4.69
[11]; [26]
  pKd: below the threshold
[12]; [26]
  pKd: below the threshold
[13]; [26]
  pKd: below the threshold
[14]; [26]
  pKd: 5.28
[15]; [26]
  pKd: 4.88
[16]; [26]
  pKd: 3.53
[17]; [26]
  pKd: below the threshold
[18]; [26]
  pKd: 4.12
[24]; [26]
  pKd: below the threshold
[19]; [26]
  pKd: below the threshold
[20]; [26]
  pKd: below the threshold
[21]; [26]
  pKd: below the threshold
[22]; [26]
  pKd: below the threshold
[25]; [26]
  pKd: 4.77

## KSGKQTMLVV [TRIM29, Q14134;Q14134-2]
[23]; [26]
  pKd: below the threshold
[1]; [26]
  pKd: below the threshold
[4]; [26]
  pKd: below the threshold
[5]; [26]
  pKd: below the threshold
[6]; [26]
  pKd: below the threshold
[7]; [26]
  pKd: below the threshold
[8]; [26]
  pKd: below the threshold
[9]; [26]
  pKd: below the threshold
[10]; [26]
  pKd: below the threshold
[11]; [26]
  pKd: below the threshold
[12]; [26]
  pKd: below the threshold
[13]; [26]
  pKd: below the threshold
[14]; [26]
  pKd: below the threshold
[15]; [26]
  pKd: below the threshold
[16]; [26]
  pKd: below the threshold
[17]; [26]
  pKd: below the threshold
[18]; [26]
  pKd: below the threshold
[24]; [26]
  pKd: 4.42
[19]; [26]
  pKd: below the threshold
[20]; [26]
  pKd: 3.93
[21]; [26]
  pKd: below the threshold

## QKNRKAQEDL [CES3, Q6UWW8]
[23]; [26]
  pKd: below the threshold
[1]; [26]
  pKd: below the threshold
[2]; [26]
  pKd: below the threshold
[3]; [26]
  pKd: below the threshold
[4]; [26]
  pKd: below the threshold
[5]; [26]
  pKd: below the threshold
[6]; [26]
  pKd: below the threshold
[7]; [26]
  pKd: below the threshold
[8]; [26]
  pKd: below the threshold
[9]; [26]
  pKd: 3.5
[10]; [26]
  pKd: below the threshold
[11]; [26]
  pKd: below the threshold
[12]; [26]
  pKd: below the threshold
[13]; [26]
  pKd: below the threshold
[14]; [26]
  pKd: below the threshold
[15]; [26]
  pKd: below the threshold
[16]; [26]
  pKd: below the threshold
[17]; [26]
  pKd: below the threshold
[18]; [26]
  pKd: below the threshold
[24]; [26]
  pKd: below the threshold
[19]; [26]
  pKd: below the threshold
[20]; [26]
  pKd: below the threshold
[21]; [26]
  pKd: below the threshold
[22]; [26]
  pKd: below the threshold
[25]; [26]
  pKd: below the threshold

## NLNSSEGVPDLLV [SARS-CoV-E, P59637]
[23]; [27]
  pKd: below the threshold
[1]; [27]
  pKd: below the threshold
[2]; [27]
  pKd: below the threshold
[3]; [27]
  pKd: below the threshold
[4]; [27]
  pKd: 3.79
[5]; [27]
  pKd: below the threshold
[6]; [27]
  pKd: below the threshold
[7]; [27]
  pKd: below the threshold
[8]; [27]
  pKd: below the threshold
[9]; [27]
  pKd: below the threshold
[10]; [27]
  pKd: below the threshold
[11]; [27]
  pKd: below the threshold
[12]; [27]
  pKd: below the threshold
[13]; [27]
  pKd: below the threshold
[14]; [27]
  pKd: 3.99
[15]; [27]
  pKd: below the threshold
[16]; [27]
  pKd: below the threshold
[17]; [27]
  pKd: below the threshold
[18]; [27]
  pKd: below the threshold
[24]; [27]
  pKd: 4.57
[19]; [27]
  pKd: below the threshold
[20]; [27]
  pKd: below the threshold
[21]; [27]
  pKd: below the threshold
[22]; [27]
  pKd: below the threshold
[25]; [27]
  pKd: below the threshold

## YLEPVLSSEL [ATP2A2, P16615;P16615-3]
[23]; [26]
  pKd: 4.82
[1]; [26]
  pKd: 3.91
[2]; [26]
  pKd: below the threshold
[3]; [26]
  pKd: below the threshold
[4]; [26]
  pKd: 4.83
[5]; [26]
  pKd: below the threshold
[7]; [26]
  pKd: below the threshold
[8]; [26]
  pKd: below the threshold
[9]; [26]
  pKd: below the threshold
[10]; [26]
  pKd: below the threshold
[11]; [26]
  pKd: below the threshold
[12]; [26]
  pKd: below the threshold
[13]; [26]
  pKd: below the threshold
[14]; [26]
  pKd: 4.24
[16]; [26]
  pKd: 4.22
[17]; [26]
  pKd: below the threshold
[18]; [26]
  pKd: 4.91
[19]; [26]
  pKd: below the threshold
[20]; [26]
  pKd: below the threshold
[21]; [26]
  pKd: below the threshold
[22]; [26]
  pKd: 4.67
[25]; [26]
  pKd: below the threshold
